This is an account of results in the DeepSol protein solubility set.

The data set can be described thus: soluble on expression in E. coli; label from the status in PepcDB or PDB records.
With “MSHIRVAFAPLDTNPSTCGLETFATQIETLSQMMTAEEMKAELYDCVRRILREQKFDQIRENEAMLRLYKVMGRSSTNLKGRGIYEQLFKKDHFTGSLKFYLQWAEECGKDQMLEEFKDVLKLARDRLSERIEMTAIESGFRDLVDEYFNGESGDMFTRPDETMDLFRFNAGSKKKRRSSVCFLQHNVPINNSGKAAFGPKTKTDLRQACIDRPNYHGISIEEFRFAKWKDTFGEDVDDDYRKRKDSGVVFVKHQVIDTDRQAREEVENRFNANLNPRRRHLSPVSEKTVDDEEEKRSRIYSPLVATKDAHRPALRSKIENPPATVTLSSDTKSASEKDVSDSDDADDDERLKIMTAGRKDGNPPDRSTSISSNYSTASARTSKSGAGLDLMAENKCLEAHAMFSDTVHLASEKTMVLGDDSVFVPERSLATTQIVTDFSVLCDPDPTMTITQERPKKVSNGLNVVYDEAAEPEESQKVEESEVQPEIVLVSPVTQTSPATMFNDIYDDEIEFGFFKPSRGNFVTSTPAQGVHLVNIDEYFGNKEEESTHEQEAPVFVAPTSSTFSKLTRRKSLAANQAVQPSVTESSKPERSDPKDSSIDCLTANLGRRLSIGADEIPNLTENNESEITGCKIRRRSEIIKQGDINPWDETLRKKLMCLVRPPQNMHEFQERAPKIQALRDCEVSGEKLHIQTLIGQGGYAKVYRAVTDDQRTVAVKYEVPSCSWEVYICDQMRNRLKDRGLELMAKCCIMEVMDAYVYSTASLLVNQYHEYGTLLEYANNMKDPNWHITCFLITQMARVVKEVHASKIIHGDIKPDNFMITRKIDDKWGKDALMSNDSFVIKIIDWGRAIDMMPLKNQRFKGRAGTEAFDCPEMVDGRSWTYQADYFGFAATMAVVVAGKYAQLTGASVGDYSLNVDIKRRNILRDACYDVINRFLNIPSCDSLPDWNILIKSFSEIWNEKFEASGWRQAVSKFNEACDLAANQK”, the “soluble on expression in E. coli” value was “not soluble”.
For the sequence “MSHQCSLSELNENLVPFTARQIKSSLIWCAEDVRNPDELQNACSYIIDPGSTASAKVFHAERYGGSGIQRNGGGARCGFDGNYQVKGIGSNPLVGEGTDERHSNGALGAVHAIYEALWGEVLAQILPYSAVRVRAVLLTDLYTEKAFERSGRKSRRALLVREPVVRPAHFERAPYFQVKPEYSSLLIHDACRVRSVIHKLPGYLPVPPEEIDAEARTDPRIYCIEGLCELARREAWQMAFCRTRFLRLTTSPSNIAMDGRLMDFNGLSCLFPGDSPADFGYKLRLAELAKEPMVLMQGLSDLCLYIGKYMFDPDFTLAARLKVEEIFQKTFHEACYYCYLELLGIPGEFITQKEIPDILKELVNSFVALLNKYYEKSHAQDIVNQDGSPLQKLVVTLIHHRHNQKQALNSSIKNDVYFTVAQQCFSQAIHWLTQGSTRRQINASLLLKEIEHHTMKRLQPREELRKENMCEKIAILLDNHGDDPLFLQEAISDMKNFMLKFSRDAFGYLEPIRNTV”, the “soluble on expression in E. coli” value is listed as “not soluble”.
As for “MSHVNQAVSCIFCYFQEMSFVCGISGELTEDPVVSQVSGHIFDRRLIVKFIAENGTDPISHGELSEDQLVSLKSGGTGSAPRNVSGTSIPSLLKMLQDEWDTVMLNSFSLRQQLQIARQELSHSLYQHDAACRVISRLSKELTAAREALSTLKPHTSAKVDDDVSIDESEDQQGLSEAILAKLEEKSKSLTAERKQRGKNLPEGLAKTEELAELKQTASHTGIHSTGTPGITALDIKGNLSLTGGIDKTVVLYDYEKEQVMQTFKGHNKKINAVVLHPDNITAISASADSHIRVWSATDSSSKAIIDVHQAPVTDISLNASGDYILSASDDSYWAFSDIRSGKSLCKVSVEPGSQIAVHSIEFHPDGLIFGTGAADAVVKIWDLKNQTVAAAFPGHTAAVRSIAFSENGYYLATGSEDGEVKLWDLRKLKNLKTFANEEKQPINSLSFDMTGTFLGIGGQKVQVLHVKSWSEVVSLSDHSGPVTGVRFGENARSLVTCSLDKSLRVFSF”, the “soluble on expression in E. coli” value is given as “not soluble”.
Next, “MSIATQEFDAIVIGAGGAGLRASFQLSQSGFKTAVVSKVFPTRSHTVAAQGGIAAALGNIEFDDGLPSDDWKWHMYDTVKGSDYIGDQDAIEYMCEHAPQSIIELEHMGMPFSRLKNGKIYQRAFGGMSRNYDPANQAERTCAAADRTGHALLHTLYQGNLAHKTDFYTEWFAVDLVKADDGSIAGVIALCIETGETVFLKAKITILATGGAGRIYESSTNAYINTGDGMGLALRAGLPLQDMEFWQFHPTGIAGAGVLVTEGCRGEGGVLRNKDGERFMERYAPNAKDLACRDVVSRASQQEIMEGRGDTFSGTSCVWLDLTHLGEDVINERLPTVRELGRTFAGIDPVEKPIPVVPTCHYQMGGIPTNKHGQVITQVDGKDKVIGGLYAVGECASVSVHGANRLGSNSLLDLVVFGRAAGMHAEQSLKEGMPMKEVSQENIEKATARITKWDTSEQRGCKEKISELRKELQRVMQQYFSVFRQESTMKEGLDKLFNIRERLDNAVLEDNSRIFNMMRIEALELDNLVLTAIATAKLALERKESRGAHSRVDYPERDDKNWMKHTLYFLEGDRTSLRDVNMSPTKVKAFQPAERKY”: “not soluble”; “MSIDMHCHLDLYPRPDLVAEESKRRGTYILSVTTTPKAWHGTSLLAKESQRIRTALGLHPQIAHQRSHELDLFDSLLSETKYVGEIGLDGGQGFKEHWDIQLKVFRHILNSVNRAGGKIMTIHSRGSASAVLDEIENIDGVAILHWFTGTPKQLERAIDLGCWFSVGPAMLDTIKGKALVLKIPKSRILTETDGPFAKFRNDPLMPWDSGIAEKQLAALWGISQMEVNAQLVDNFKVLCTS”: “soluble”.
For the sequence “MSIESSATPTTPNAEALQLNSTEVRILGCLIEKQATNPETYPLTLNALVIACNQKTSRDPVMNLTQGQVGQSLRALEGRGLTRLVMGSRADRWEHKVDKGLELVPAQVILTGLLLLRGPQTVSELLTRSNRMHDFEDSEQVVHQLERLIARGLATLVPRQSGQREDRYMHLIGDPEDLQD”, the “soluble on expression in E. coli” value is recorded as “soluble”.
For “MSIMDVQHVAQFYQQLDKSQLHRLIEIYHPDVVFEDAAHRIEGFDALYQYFLNLYQNVHTCTFTIHEQYAVNEGAFLVWTMHLRHPKLAKGEQVDVKGVSHLHFAEGKVTYHRDYFDMGEMLYEQLPVLGQVIRAIKRRLGQ” the value was “not soluble”.
Next, “MSITINKLEIENVKRIKAVKIEPSATGLTIIGGNNNQGKTSVLDAIAWALGGNKYKPSQAMREGSQVPPTLKITMSNGLIVERKGKNASLKVIDPNGQKGGQQLLDSFVEELAINLPKFMDSTPKEKADVLLEIIGVGDQLAELELKEKEIYNQRHAIGVIADQKEKFAKEMTYYPDAPKQLVSISELIQQHQAILAKNGENAQKRQNVERIRYDYNQSILEVDRLRKLLADAEAKTNKLSEDLKIANTDAMDLHDESTAEIEANIADIDEVNRKVRANFDKDKAEEDAKQQREQYNILTNDIESIRQQKRDLLINADLPLEGLSVDDGKLLYLGQEWDNMSGSQQLIVATAIVRKLKPDCGFVLIDKLEQMDNITLEQFGKRLEQEGLQAIATRVSIGEECAIIIEDGYSVENKAHNFKTAEGGNFAETVAPTWKGEF”: “not soluble”; “MSITPHRLPVAPVIVREAYLSLLRKGWRPGDRDLKTPRNVKIETGIIEKAEGSALVKLGKTQVIAGVKAGVGAPFKDTPNQGVLTVHAEFVPLASPVFEPGPPDENAIELARVVDRSLREVGAVDLESLVIRPGEKVWVLWVDLYIIDHDGNLFDASMLATMAVLLTARLPRYEESETGEIIISKEGEGEELKVKTRVVTVTTAKIDRYIVVDPNIEEEAVSDVRLVTAVDENGRIVGLQKTGMGSLTEADIETMIGYSLEASKVYFKALEEAIKP”: “soluble”; “MSIWCAVCNDLKPCEEATQLIPCLHTFCTKCLKKSTKKMRVCPVAHCYSSLTAPEPMTSTCEGENCQRKIMGNAEILRTACHHDICQHCYDLASRKEKSCCPALGCAELMIDEEDMICEGPCKKALVFDKTIVIPCCGARMCDVCGPKWTNGRDFCELGKCVNKESAKRRKSADATRQPCMGSLHCEGEVLRNFPSELECDHDVCIKCIGSMLDECEKNGKSPACPVKTCAIPYRCESVLALDAQFPEKKAFFSKFTLQAKFSMQTLKDDIVTNIIHGDLNTMNGQKFSLKIGQCDDDDGGMPMEFVREGTLGDLVRETRRVLKILPTDKIYGYYRIDDNKKSKLDVTKDTIRSSCSSLNINENTTVLVDTTGIVSRPKKQ”: “not soluble”.
For the sequence “MSKDEGKRKKESVVDLTRFLDKEIRVKFQGGREASGVLRGFDQLLNMVLDDCREYLRDPQNPSVVGDETRQLGLIVARGTAITVVSPADGLEQIANPFATQEEE”, the “soluble on expression in E. coli” value was “not soluble”.
Next, “MSKFAMVFPGQGSQSLGMLADLAAQFPIVEATFSEASSVLGYDLWQLVQQGPAEELNKTWQTQPALLTASVAIWRIWQHQGGKLPSLMAGHSLGEYSALVCAGVLDFKQAVSLVELRGKLMQEAVPEGTGAMYAIIGLDNESIAKACEESAQGQVVSPVNFNSPGQVVIAGNKDAVERAGAACKAAGAKRALPLPVSVPSHCALMKPAADKLAVALEKIDFQEPLFPVVNNVDVKAEVSPVAIRSALVRQLYNPVRWTESVEFIAAEGVELLLEIGPGKVLTGLTKRIVDSLAAAAVNDVVTLNSALEH”: “not soluble”; “MSKIAIIVDSSSYIPKDQLKKHHIYVIDNPIIFGETIYHEFNWPVNADFYQQMATTPIQPTTSQPAPGDFEAAFQAAKDDGYKQALVITLSSGFSGTFLNTSAIASSHSDIDIHVWDSRIACLGAGNQALLAAYLAEKGIGIDEILSKLQILRSRTGVFFVVDSISHLQRTGRLSGGQALVAGLLNIKPILNINTNKQGKIDAVAKTRKMSGAWRYIEKHFAKIADNYQRAGWPMRVSILDADNPELADAWLKRAEKRWPEIIFERGIIGPLVGVHIGGKAVGLIWAEDYKRLED”: “not soluble”; “MSKKIRTEAVDYLFDAILSLKDKEECYTFFEDICTINELLSLSQRFEVAKMLREQKTYLEIAEKTGASTATISRVNRSLNYGNDGYDMVFERMEK”: “not soluble”.
On to “MSKKSQIIETATRLFAEHGFENTPVSLICEEAEVSKGAVFHHFKNKNDILREVFIHITTIIEETDKNDVHLATQEDPLEAAIHEIFDGMSVAKYRKMYQFNFSVMVHPTTRAIVADLIEDRYQQLQTSAEEIFRAVGYSNPVVITKMFIAEIDGIAMNYLLNNDFPLMDIKQEFIKKYCQ”, for which the “soluble on expression in E. coli” value is recorded as “not soluble”.
Next, “MSKKTPLNEIAEFDVSDYLRDDEDIAEYLTQVLAEGDSNELLRAIGYIAKARGITQLAKDTGLGRESLYKAFRAGSKPQFETVFKVLHALNINLKAIPKEVVSTRV”: “not soluble”; “MSKLEAILSQEVEAEIQALLQEAEAKAEAVKREAEEKAKALLQARERALEAQYRAALRRAESAGELLVATARTQARGEVLEEVRRRVREALEALPQKPEWPEVVRKLALEALEALPGAKALVANPEDLPHLEAMARERGVELQAEPALRLGVRAVGAEGKTQVENSLLARMDRAWDAMSSKVAQALWG”: “soluble”; “MSKLLYLVAVDGGEWGERAADRAIHLAEKTHAKVKLVTVIDWPYIHPMIIEGAAAPLLDKEAEEMTVKAKVITPLVEKYNTLSLNITTELLWGDPAVILKEQVEVTNADMIFVGRQGRSSVVDTLFGSVANKLAHSVSVPIVLVP”: “not soluble”.
As for “MSKLTAAYNKTRECVVTRSKIMMGYPEARYPTIPKILKKTADFQKLEGSKDRIAFTLSQEPIADKKCTEMIKNVLLEQFQDTDIPANYIAVSMALPNFKIGQNCHDFQPLDWYKNIKGYFTYKKITEQVQAAYFNDEAGNQFLAGVCYYATPAGKWVAKLQTEQTLLRFEFQKAEPFPLNSKSRFDTKAFKKFARYGRYCETEGCRVLVWVGKADGQIVHLNYHPVYCMQWTKGCAECAKDHFEYMWIAPEEPVVQKSKEEDYILKAPEDKDLSDFDQLSDVLNVDAISLH”, the “soluble on expression in E. coli” value is listed as “not soluble”.
